We go through two molecules from US20030175929A1 (ORIENTAL YEAST, published 2003).

The chains are these.
B1: human creatine kinase B type subunit (enzyme)
chain: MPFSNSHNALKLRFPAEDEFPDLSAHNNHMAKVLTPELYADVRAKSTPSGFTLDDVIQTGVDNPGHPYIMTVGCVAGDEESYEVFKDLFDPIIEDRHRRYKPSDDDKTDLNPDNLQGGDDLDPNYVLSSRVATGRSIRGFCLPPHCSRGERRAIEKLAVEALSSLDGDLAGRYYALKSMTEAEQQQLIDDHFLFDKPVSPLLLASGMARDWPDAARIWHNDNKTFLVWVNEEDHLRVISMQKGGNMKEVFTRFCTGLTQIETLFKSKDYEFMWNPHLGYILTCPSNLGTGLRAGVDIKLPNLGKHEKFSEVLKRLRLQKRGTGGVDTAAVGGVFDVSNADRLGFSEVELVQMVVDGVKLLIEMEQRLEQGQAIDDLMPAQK
notes: Co-expressed with the CK-M subunit from the single plasmid pTRP-hCKMB; also called CK-B subunit; CK-B

Data set [1] concerns the molecule itself. As to the kind of experiment: co-expression in E. coli; Q-Sepharose separation of dimeric CK isozymes (homodimer). The method, then: (§1) The cells thus obtained were collected and suspended in a 50 mM phosphate buffer (pH 7.5) containing 5 mM of mercaptoethanol. After disrupting the cells by ultrasonication, the supernatant was referred to as a recombinant CK extract. From this extract, CK was recovered as a precipitate by 70%-saturation ammonium sulfate salting out. The precipitate thus salted out was dissolved in 1.5 M ammonium sulfate (pH 7.5) and subjected to hydrophobic column chromatography by using a Buthyl-Toyopearl C650 gel (manufactured by Tosoh). The CK activity was eluted at 1.5-0 M-gradient (pH 7.5) ammonium sulfate elution. The CK activity elution peaks were combined, concentrated by using an ultrafiltration membrane (YM10, manufactured by Amicon) and then dialyzed against a 50 mM phosphate buffer (pH 7.5). Fractions eluted by the hydrophobic chromatography were adsorbed by a Q-Sepharose column (manufactured by Pharmacia, Sweden) and thus it was attempted to separate CK isozymes.
(§2) As a result, the CK activity was separated into the MM type (unadsorbed fraction), the MB type (elution peak 1) and the BB type (elution peak 2). […] It was thus found out that CK-MB was expressed at a high dose in this recombinant strain. It could be also confirmed that three human recombinant CK isozymes could be prepared by using this expression strain alone. […]

Data set [2] deals with B1. As to the kind of experiment: co-expression in E. coli; Q-Sepharose separation of dimeric CK isozymes; MB fraction purified to electrophoretic homogeneity by Sephacryl-S200HR gel filtration. The method, then: as §1, §2
Background: In gel filtration, larger molecules generally elute earlier.

Turning to B1, the binding result in data set [1] was “binds”.

B2: human creatine kinase M type subunit (enzyme)
chain: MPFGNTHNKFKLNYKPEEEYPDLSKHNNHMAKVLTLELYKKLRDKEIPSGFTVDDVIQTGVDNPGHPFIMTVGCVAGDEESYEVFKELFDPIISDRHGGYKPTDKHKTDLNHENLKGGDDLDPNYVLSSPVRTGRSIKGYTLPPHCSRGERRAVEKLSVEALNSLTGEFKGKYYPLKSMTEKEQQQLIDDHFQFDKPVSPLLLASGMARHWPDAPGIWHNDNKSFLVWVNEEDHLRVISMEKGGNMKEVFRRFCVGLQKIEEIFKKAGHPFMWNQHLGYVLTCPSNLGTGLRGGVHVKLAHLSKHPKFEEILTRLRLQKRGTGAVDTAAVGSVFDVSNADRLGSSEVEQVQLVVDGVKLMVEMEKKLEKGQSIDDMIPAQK
notes: Co-expressed with the CK-B subunit from the single plasmid pTRP-hCKMB; also called CK-M subunit; CK-M
In the case of B2, the binding result in data set [1] and in data set [2] was “binds” throughout.
